Values quoted from earlier work as cited in patent US20180369330A1, “METHODS AND COMPOSITIONS USING INTEGRIN-BASED THERAPEUTICS” (La Jolla Institute for Allergy and Immunology, priority 2016, published 2018).

Tests used:
[1] = patients, clinical trials or clinical use
αVβ3 = biological target: T1, αVβ3 (Homo sapiens, UniProt P05106+P06756); settings: patients with glioblastoma
T1 construct: host or cells: patients with glioblastoma (cited trials)
T1 sequence (P06756 31-889 limits assumed): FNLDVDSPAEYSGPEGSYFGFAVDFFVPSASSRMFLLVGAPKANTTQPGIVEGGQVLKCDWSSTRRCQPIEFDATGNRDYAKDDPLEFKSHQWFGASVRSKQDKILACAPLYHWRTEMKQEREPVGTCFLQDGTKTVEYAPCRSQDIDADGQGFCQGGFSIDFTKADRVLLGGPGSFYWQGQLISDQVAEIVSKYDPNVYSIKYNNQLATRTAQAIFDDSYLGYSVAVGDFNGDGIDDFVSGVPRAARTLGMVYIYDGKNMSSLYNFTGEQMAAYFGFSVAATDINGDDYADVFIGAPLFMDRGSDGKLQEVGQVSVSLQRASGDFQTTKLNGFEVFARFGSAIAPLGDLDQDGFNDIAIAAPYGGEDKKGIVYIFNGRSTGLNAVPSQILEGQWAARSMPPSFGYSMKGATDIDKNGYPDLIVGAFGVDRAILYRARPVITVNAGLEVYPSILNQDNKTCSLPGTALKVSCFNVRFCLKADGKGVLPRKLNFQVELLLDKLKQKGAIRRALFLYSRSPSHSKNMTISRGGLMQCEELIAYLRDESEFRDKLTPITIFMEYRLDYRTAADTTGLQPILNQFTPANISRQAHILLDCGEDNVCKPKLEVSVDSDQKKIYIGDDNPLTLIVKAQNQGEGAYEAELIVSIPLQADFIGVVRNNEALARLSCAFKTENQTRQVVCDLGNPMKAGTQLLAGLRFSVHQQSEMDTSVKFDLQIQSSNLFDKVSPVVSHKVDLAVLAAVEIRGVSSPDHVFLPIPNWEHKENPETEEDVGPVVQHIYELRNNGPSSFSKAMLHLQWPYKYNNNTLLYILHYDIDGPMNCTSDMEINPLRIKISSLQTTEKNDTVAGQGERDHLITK
T1 sequence (P06756 891-1048 limits assumed): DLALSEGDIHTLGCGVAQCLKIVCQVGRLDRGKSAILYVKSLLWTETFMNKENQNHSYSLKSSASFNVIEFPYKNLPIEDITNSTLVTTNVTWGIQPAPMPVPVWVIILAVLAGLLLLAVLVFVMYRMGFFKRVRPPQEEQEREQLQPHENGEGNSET
T1 sequence (P05106 27-788): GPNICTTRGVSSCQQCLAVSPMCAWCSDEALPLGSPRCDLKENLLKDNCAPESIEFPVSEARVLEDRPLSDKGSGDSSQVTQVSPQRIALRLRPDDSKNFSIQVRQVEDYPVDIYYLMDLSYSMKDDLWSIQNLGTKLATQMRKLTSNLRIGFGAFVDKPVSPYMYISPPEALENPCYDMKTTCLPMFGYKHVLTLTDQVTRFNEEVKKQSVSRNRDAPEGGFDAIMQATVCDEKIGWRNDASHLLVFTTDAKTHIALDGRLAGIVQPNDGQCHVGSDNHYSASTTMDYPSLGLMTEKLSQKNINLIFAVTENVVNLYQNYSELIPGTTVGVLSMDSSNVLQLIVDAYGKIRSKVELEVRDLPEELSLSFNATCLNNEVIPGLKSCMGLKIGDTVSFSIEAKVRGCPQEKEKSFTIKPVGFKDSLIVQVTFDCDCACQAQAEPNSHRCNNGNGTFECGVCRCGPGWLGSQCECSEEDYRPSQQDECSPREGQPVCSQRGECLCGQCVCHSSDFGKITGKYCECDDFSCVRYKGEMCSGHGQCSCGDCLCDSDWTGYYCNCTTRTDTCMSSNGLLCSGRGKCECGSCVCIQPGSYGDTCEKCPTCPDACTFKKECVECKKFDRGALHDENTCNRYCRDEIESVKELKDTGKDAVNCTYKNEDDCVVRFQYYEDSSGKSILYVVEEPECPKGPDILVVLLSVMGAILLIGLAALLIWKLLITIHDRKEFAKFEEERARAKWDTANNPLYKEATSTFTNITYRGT

Row | Molecule | progressive multifocal leukoencephalopathy [1] | efficacy in limiting tumor angiogenesis and progression (αVβ3)
1 | Natalizumab: antibody targeting lymphocyte α4β1 and α4β7 integrins | rare but serious complication | 
2 | vedolizumab: antibody to a combinatorial epitope in α4β7 | has not been observed | 
3 | CC(C)[C@H]1C(=O)N[C@@H](CCCN=C(N)N)C(=O)NCC(=O)N[C@@H](CC(=O)O)C(=O)N[C@H](Cc2ccccc2)C(=O)N1C [Cilengitide] |  | has not shown efficacy
